Source: US20240043507A1 (RQ BIOTECHNOLOGY, published 2024)

Experiments:
[1] = biological target: T1, SARS-CoV-2 receptor binding domain (RBD), native (SARS-CoV-2, UniProt P0DTC2 330-532); assay: BLI, RBD/Fab; de-glycosylated Fab 316
T1 construct: range 330-532

[2] = biological target: T1, SARS-CoV-2 receptor binding domain …; assay: BLI, RBD/Fab; de-glycosylated Fab 88
[3] = biological target: T1, SARS-CoV-2 receptor binding domain …; assay: BLI, RBD/Fab; glycosylated Fab 88

B1: Fab 316, de-glycosylated (Fab, V domains shown)
VH: not shown
VL: QAVLTQPPSASGSPGQSVTISCTGTSSDVGGYNYVSWYQQHPGKAPKLMIYEVSKRPSGVPDRFSGSKSGNTASLTVSGLQAEDEADYYCSSYAGSNHWVFGGGTKLTVL
Kd [1]: 1 nM

B2: Fab 88, de-glycosylated (Fab, V domains shown)
VH: QLQLQESGPGLVKPSQTLSLTCTVSGGSISSGSYNWTWIRQPAGKGLEWIGRIYNSGSTNYNPSLKSRVTISVDTSKNQLSLKVRSVTAADTAVYYCARHCSGGTCYPKYYYGMDVWGQGTTVTVSS
VL: QSALTQPPSVSEAPRQRVTISCSGSSSNIGNNAVNWYQQFPGKAPKLLIYYDDLLPSGVSDRFSGSKSGTSASLAISGVQSEDEADYYCAAWDDSLNVVVFGGGTKLTVL
Kd [2]: 0.8 nM

B3: Fab 88 (Fab, V domains shown)
VH: QLQLQESGPGLVKPSQTLSLTCTVSGGSISSGSYNWTWIRQPAGKGLEWIGRIYNSGSTNYNPSLKSRVTISVDTSKNQLSLKVRSVTAADTAVYYCARHCSGGTCYPKYYYGMDVWGQGTTVTVSS
VL: QSALTQPPSVSEAPRQRVTISCSGSSSNIGNNAVNWYQQFPGKAPKLLIYYDDLLPSGVSDRFSGSKSGTSASLAISGVQSEDEADYYCAAWDDSLNVVVFGGGTKLTVL
notes: also called 88 Fab (glycosylated)
Kd [3]: 1.2 nM
